Assay results: PMC9616921

Experiments:
[1] = biological target: minimal mature VEGF-C refolded from E. coli inclusion bodies (human); assay: SEC; refolded, dialysed and concentrated material on Superdex 75 10/300 GL in PBS, 0.5-0.6 mL/min; calibrated with BSA, carbonic anhydrase and RNaseA; dimeric fractions 11.5-13.5 mL, monomeric fractions 13.5-15.5 mL
[2] = IP of 35S-labelled 293T supernatants and lysates, SDS-PAGE; conditions: glycan lost; control: wild type

Row | Molecule | stoichiometry N [1] | expression_or_secretion [2]
1 | minimal mature VEGF-C refolded from E. coli inclusion bodies (domain or fragment) | 2 | –
2 | VEGF-C: N175,205W (protein) parent chain: MHLLGFFSVACSLLAAALLPGPREAPAAAAAFESGLDLSDAEPDAGEATAYASKDLEEQLRSVSSVDELMTVLYPEYWKMYKCQLRKGGWQHNREQANLNSRTEETIKFAAAHYNTEILKSIDNEWRKTQCMPREVCIDVGKEFGVATNTFFKPPCVSVYRCGGCCNSEGLQCMNTSTSYLSKTLFEITVPLSQGPKPVTISFANHTSCRCMSKLDVYRQVHSIIRRSLPATLPQCQAANKTCPTNYMWNNHICRCLAQEDFMFSSDAGDDSTDGFHDICGPNKELDEETCQCVCRAGLRPASCGPHKELDRNSCQCVCKNKLFPSQCGANREFDENTCQCVCKRTCPRNQPLNPGKCACECTESPQKCLLKGKKFHHQTCSCYRRPCTNRQKACEPGFSYSEEVCRCVPSYWKRPQMS | – | abolishes
3 | VEGF-C: N175,205Q (protein) parent chain: MHLLGFFSVACSLLAAALLPGPREAPAAAAAFESGLDLSDAEPDAGEATAYASKDLEEQLRSVSSVDELMTVLYPEYWKMYKCQLRKGGWQHNREQANLNSRTEETIKFAAAHYNTEILKSIDNEWRKTQCMPREVCIDVGKEFGVATNTFFKPPCVSVYRCGGCCNSEGLQCMNTSTSYLSKTLFEITVPLSQGPKPVTISFANHTSCRCMSKLDVYRQVHSIIRRSLPATLPQCQAANKTCPTNYMWNNHICRCLAQEDFMFSSDAGDDSTDGFHDICGPNKELDEETCQCVCRAGLRPASCGPHKELDRNSCQCVCKNKLFPSQCGANREFDENTCQCVCKRTCPRNQPLNPGKCACECTESPQKCLLKGKKFHHQTCSCYRRPCTNRQKACEPGFSYSEEVCRCVPSYWKRPQMS | – | abolishes
